Assay results reported in patent US20210246166A1 (Bayer, published 2021).
Numbered stars: 1 amine (or outer) side, 2 acyl side, 3 side chain; on linkers, the order of the positions; unused ones are H or OH. Bridge positions count the residues as written; N and C are the ends. Square brackets hold non-standard residues; d marks the D form. Ends that are not written are not given here. Phe(2,3-F2) = (2S)-3-(2,3-difluorophenyl)-2-aminopropanoic acid, O=C([C@H](Cc1cccc(F)c1F)N[*:1])[*:2]; Pro(4-spirocPr) = O=C(O)[C@@H]1CC2(CC2)CN1; Oic = O=C(O)[C@@H]1C[C@@H]2CCCC[C@@H]2N1; tBuAla = CC(C)(C)C[C@H](N)C(=O)O; Pen = CC(C)(S)[C@H](N)C(=O)O; Orn = NCCC[C@H](N)C(=O)O; Sar = CNCC(=O)O

T1: recombinant rat MASP1 active protease (amino acids 302-704, C-terminal His Tag) (rat, UniProt Q8CHN8 302-704)
T1 sequence: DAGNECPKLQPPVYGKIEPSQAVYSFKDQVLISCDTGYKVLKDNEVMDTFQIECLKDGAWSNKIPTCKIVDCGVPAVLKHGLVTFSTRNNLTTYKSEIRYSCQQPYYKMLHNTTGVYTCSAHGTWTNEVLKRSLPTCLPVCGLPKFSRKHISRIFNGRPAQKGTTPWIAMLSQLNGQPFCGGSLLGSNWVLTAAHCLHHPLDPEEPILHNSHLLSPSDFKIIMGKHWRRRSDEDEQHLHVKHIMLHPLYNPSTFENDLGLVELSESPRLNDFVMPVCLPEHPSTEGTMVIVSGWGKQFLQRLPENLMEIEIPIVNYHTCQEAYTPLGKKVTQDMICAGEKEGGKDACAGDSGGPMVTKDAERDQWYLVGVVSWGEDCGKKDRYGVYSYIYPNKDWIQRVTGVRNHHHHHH

B1: Example 370: fIC+SRSLP-(Oic)-I-(Pen)+IP-NH2 (peptide)
peptide: [dF]ICSRSLP[Oic]I[Pen]IP-NH2
modifications: disulfide 3-11; N-terminus assumed
SMILES: CC[C@H](C)[C@H](NC(=O)[C@H](N)Cc1ccccc1)C(=O)N[C@H]1CSSC(C)(C)[C@@H](C(=O)N[C@H](C(=O)N2CCC[C@H]2C(N)=O)[C@@H](C)CC)NC(=O)[C@H]([C@@H](C)CC)NC(=O)[C@@H]2C[C@@H]3CCCC[C@@H]3N2C(=O)[C@@H]2CCCN2C(=O)[C@H](CC(C)C)NC(=O)[C@H](CO)NC(=O)[C@H](CCCNC(=N)N)NC(=O)[C@H](CO)NC1=O
B2: Example 381: ((N-Me)G)-(Orn)-(Orn)-(Orn)-IC+SRS-((tBu)A)-PPI-(Pen)+IP-NH2 (peptide)
peptide: [Sar][Orn][Orn][Orn]ICSRS[tBuAla]PPI[Pen]IP-NH2
modifications: disulfide 6-14; N-terminus assumed
SMILES: CC[C@H](C)[C@H](NC(=O)[C@H](CCCN)NC(=O)[C@H](CCCN)NC(=O)[C@H](CCCN)NC(=O)CNC)C(=O)N[C@H]1CSSC(C)(C)[C@@H](C(=O)N[C@H](C(=O)N2CCC[C@H]2C(N)=O)[C@@H](C)CC)NC(=O)[C@H]([C@@H](C)CC)NC(=O)[C@@H]2CCCN2C(=O)[C@@H]2CCCN2C(=O)[C@H](CC(C)(C)C)NC(=O)[C@H](CO)NC(=O)[C@H](CCCNC(=N)N)NC(=O)[C@H](CO)NC1=O
B3: Example 405: ((N-Me)G)-(Orn)-(Orn)-(Orn)-IC+SRSLP-(Oic)-I-(Pen)+IP-NH2 (peptide)
peptide: [Sar][Orn][Orn][Orn]ICSRSLP[Oic]I[Pen]IP-NH2
modifications: disulfide 6-14; N-terminus assumed
SMILES: CC[C@H](C)[C@H](NC(=O)[C@H](CCCN)NC(=O)[C@H](CCCN)NC(=O)[C@H](CCCN)NC(=O)CNC)C(=O)N[C@H]1CSSC(C)(C)[C@@H](C(=O)N[C@H](C(=O)N2CCC[C@H]2C(N)=O)[C@@H](C)CC)NC(=O)[C@H]([C@@H](C)CC)NC(=O)[C@@H]2C[C@@H]3CCCC[C@@H]3N2C(=O)[C@@H]2CCCN2C(=O)[C@H](CC(C)C)NC(=O)[C@H](CO)NC(=O)[C@H](CCCNC(=N)N)NC(=O)[C@H](CO)NC1=O
B4: Example 439: ((N-Me)G)-IC+SRS-((tBu)A)-P-((6S)-5-Azaspiro[2.4]heptane-6-carboxylic acid)-I-(Pen)+IP-NH2 (peptide)
peptide: [Sar]ICSRS[tBuAla]P[Pro(4-spirocPr)]I[Pen]IP-NH2
modifications: disulfide 3-11; N-terminus assumed
SMILES: CC[C@H](C)[C@H](NC(=O)CNC)C(=O)N[C@H]1CSSC(C)(C)[C@@H](C(=O)N[C@H](C(=O)N2CCC[C@H]2C(N)=O)[C@@H](C)CC)NC(=O)[C@H]([C@@H](C)CC)NC(=O)[C@@H]2CC3(CC3)CN2C(=O)[C@@H]2CCCN2C(=O)[C@H](CC(C)(C)C)NC(=O)[C@H](CO)NC(=O)[C@H](CCCNC(=N)N)NC(=O)[C@H](CO)NC1=O
B5: Example 440: ((N-Me)G)-IC+SRS-((2S)-3-(2,3-difluorophenyl)-2-aminopropanoic acid)-PPI-(Pen)+IP-NH2 (peptide)
peptide: [Sar]ICSRS[Phe(2,3-F2)]PPI[Pen]IP-NH2
modifications: disulfide 3-11; N-terminus assumed
SMILES: CC[C@H](C)[C@H](NC(=O)CNC)C(=O)N[C@H]1CSSC(C)(C)[C@@H](C(=O)N[C@H](C(=O)N2CCC[C@H]2C(N)=O)[C@@H](C)CC)NC(=O)[C@H]([C@@H](C)CC)NC(=O)[C@@H]2CCCN2C(=O)[C@@H]2CCCN2C(=O)[C@H](Cc2cccc(F)c2F)NC(=O)[C@H](CO)NC(=O)[C@H](CCCNC(=N)N)NC(=O)[C@H](CO)NC1=O

target: T1, recombinant rat MASP1 active protease …; experiment: cell-based or functional assay

| rat MASP1 IC50 [nM] | Binder |
| --- | --- |
| 235 | B1 |
| 600 | B2 |
| 650 | B3 |
| 70 | [Sar]ICSRSLP[Oic]I[Pen]I[5‑Azaspiro(2.4)heptane‑1‑carboxylic acid]-OH (disulfide 3-11) [Example 419: ((N-Me)G)-IC+SRSLP-(Oic)-I-(Pen)+I-((5-Azaspiro[2.4]heptane-1-carboxylic acid)-OH] |
| 39 | [Sar]ICSRSLP[Oic]I[Pen]IPP[(2S)‑3‑(Triazol-1-yl)‑2‑(amino)propanoic acid]-NH2 (disulfide 3-11) |
| 46 | [Sar]ICSRSLP[Oic]I[Pen]IP[(2S)‑3‑(Triazol-1-yl)‑2‑(amino)propanoic acid]-NH2 (disulfide 3-11) [Example 437: ((N-Me)G)-IC+SRSLP-(Oic)-I-(Pen)+IP-((2S)-3-(Triazol-1-yl)-2-(amino)propanoic acid)-NH2] |
| 31 | [Sar]ICSRSLP[Oic]I[Pen]IP[5‑Azaspiro(2.4)heptane‑1‑carboxylic acid]-OH (disulfide 3-11) [Example 438: ((N-Me)G)-IC+SRSLP-(Oic)-I-(Pen)+IP-((5-Azaspiro[2.4]heptane-1-carboxylic acid)-OH] |
| 36 | B4 |
| 610 | B5 |

target: recombinant rat MASP2 active protease (amino acids 296-685, C-terminal His Tag) (rat, UniProt Q9JJS8 296-685); experiment: cell-based or functional assay
Sequence (Q9JJS8 other isoform, or with tags, fused parts or gaps limits assumed): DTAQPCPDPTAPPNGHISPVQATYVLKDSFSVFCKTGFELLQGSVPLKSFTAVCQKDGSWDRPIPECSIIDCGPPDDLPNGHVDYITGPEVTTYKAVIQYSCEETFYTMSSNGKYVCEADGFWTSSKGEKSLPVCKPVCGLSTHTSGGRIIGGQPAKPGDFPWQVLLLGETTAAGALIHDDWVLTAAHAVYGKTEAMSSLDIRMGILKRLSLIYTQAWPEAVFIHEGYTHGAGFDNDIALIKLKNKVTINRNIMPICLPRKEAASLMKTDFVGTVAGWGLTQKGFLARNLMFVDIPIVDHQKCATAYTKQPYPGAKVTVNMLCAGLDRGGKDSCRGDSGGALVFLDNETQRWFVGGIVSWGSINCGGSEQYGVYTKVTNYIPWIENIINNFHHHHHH

| rat MASP2 IC50 [nM] | Binder |
| --- | --- |
| 170 | B1 |
| 470 | B2 |
| 510 | B3 |
| 42 | [Sar]ICSRSLP[Oic]I[Pen]I[5‑Azaspiro(2.4)heptane‑1‑carboxylic acid]-OH (disulfide 3-11) [Example 419: ((N-Me)G)-IC+SRSLP-(Oic)-I-(Pen)+I-((5-Azaspiro[2.4]heptane-1-carboxylic acid)-OH] |
| 31 | [Sar]ICSRSLP[Oic]I[Pen]IPP[(2S)‑3‑(Triazol-1-yl)‑2‑(amino)propanoic acid]-NH2 (disulfide 3-11) |
| 40 | [Sar]ICSRSLP[Oic]I[Pen]IP[(2S)‑3‑(Triazol-1-yl)‑2‑(amino)propanoic acid]-NH2 (disulfide 3-11) [Example 437: ((N-Me)G)-IC+SRSLP-(Oic)-I-(Pen)+IP-((2S)-3-(Triazol-1-yl)-2-(amino)propanoic acid)-NH2] |
| 22 | [Sar]ICSRSLP[Oic]I[Pen]IP[5‑Azaspiro(2.4)heptane‑1‑carboxylic acid]-OH (disulfide 3-11) [Example 438: ((N-Me)G)-IC+SRSLP-(Oic)-I-(Pen)+IP-((5-Azaspiro[2.4]heptane-1-carboxylic acid)-OH] |
| 9.4 | B4 |
| 14 | B5 |
